Results as given in the supplement of paper PMC10567573.

B1: MYOZ1 (parent)
chain: FSDSSMDHFQKFLPTVGGQLGTAG
B2: PBXIP1 (parent)
chain: LPVETLGPASRMDPESERALQAPH

Variants of: B1
Experiment: protein stability index of a GFP-peptide fusion (GPS, HEK-293T) (PSI 1-6); higher = more stable
Conditions: c terminus: a fixed tail appended
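Also: lentivirally expressed fusions sorted by FACS into six bins by GFP to DsRed ratio, PSI derived from sequencing read proportions per bin multiplied by bin number.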

Variant	protein stability index
F1K	3.77
F1T	3.51
F12C	2.92
V16K	2.64
V16L	2.28
V16M	2.46
V16T	3.09
V16Y	1.92
V16H	2.75
V16G	2.98
V16F	2.75
V16W	2.44
V16N	2.26
L20D	3.24
L20M	2.35
L20W	1.56
L20V	2.25
S2N	2.23
S2R	1.94
S2G	2.9
S2Q	2.59
S2H	1.5
S2P	2.54
M6L	2.29
M6R	2.66
M6S	2.26

Variant	protein stability index
M6N	2.78
M6V	2.23
S4Q	1.92
S4E	2.94
S4M	1.79
S4G	2.15
S4R	2.51
L13H	3.29
L13C	2.75
L13E	4.42
L13D	3.44
L13T	3.53
L13Y	2.76
L13P	3.06
G21R	2.25
G21K	2.32
G21M	2.28
Q19N	2.08
Q19R	3.06
Q19T	2.29
Q19A	1.79
Q19M	2.03
Q19C	1.96
Q19G	2.05
Q19W	2.35
H8F	1.38

Variant	protein stability index
H8R	1.61
H8Q	2.58
H8A	1.84
H8K	2.15
H8L	1.35
H8E	2.34
H8T	2.51
H8S	1.53
H8N	2.48
F9A	2.71
F9T	2.48
F9Q	3.88
F9N	3.84
F9W	1.89
G18V	1.94
G18D	3.05
G18Q	2.63
G18E	3.48
G18K	2
G18H	2.04
G18P	2.43
Q10L	1.3
Q10A	2.33
Q10R	1.13
Q10D	3.15
Q10K	2.14

Variant	protein stability index
G24D	3.09
G24Q	1.98
G24W	1.23
G24T	1.89
K11W	1.02
K11Q	2.66
D7I	2.3
D7V	2.15
D7H	1.82
D7S	2.56
D7Q	2.02
A23T	2.59
A23H	2.3
A23Y	2.19
A23M	1.63
A23L	2.01
A23S	1.83
A23Q	2.62
P14T	2.25
P14V	3.62
P14D	1.61
D3E	3.06
D3K	1.63
D3T	1.96
D3R	1.49
T22Y	2.05

Variant	protein stability index
T22M	2.14
T22N	2.54
T22G	2.09
T22H	1.86
T15H	2.69
T15P	2.51
T15A	2.64
T15C	2.33
T15I	2.43
T15E	2.5
T15D	2.61
G17A	2.48
G17Q	2.53
G17V	2.38
G17C	1.97
G17W	2.03
G17K	2.02
S5H	2.25
S5G	1.88
S5R	1.05
S5N	3.11
S5P	2.08
S5A	3.02
S5T	2.98

Variants of: B2
Experiment: as above
Conditions: c terminus: a fixed tail appended

Variant	protein stability index
R18T	4.82
R18C	4.12
R18K	4.6
R18A	4.57
R18V	4.45
R18N	4.62
R18Y	3.7
R18Q	4.55
R18E	4.47
R18D	4.44
R18L	3.69
R18F	4.07
R18W	3.66
R18S	4.19
R18I	4.29
R18G	4.66
R18H	4.77
R18M	4.73
R18P	4.18
A22Q	4.45
A22H	4.76
A22C	4.45
A22R	4.78

Variant	protein stability index
A22E	4.68
A22N	4.5
A22D	4.7
A22G	4.72
A22Y	4.31
A22L	3.98
A22F	4.01
A22I	4.23
A22K	4.4
A22T	4.7
A22M	3.68
A22S	4.36
A22P	4.27
A22V	4.2
A22W	3.25
A19C	4.48
A19S	4.19
A19D	4.41
A19T	4.63
A19I	4
A19Q	4.46
A19K	4.32
A19V	4.46

Variant	protein stability index
A19P	4.71
A19N	4.45
A19H	4.31
A19F	4.05
A19G	4.23
A19M	4.21
A19Y	3.64
A19L	4.22
A19E	4.68
A19W	3.82
A19R	4.09
E15S	3.81
E15V	4.28
E15Y	3.95
E15G	3.99
E15K	4.04
E15C	3.82
E15P	3.92
E15F	3.81
E15D	5.08
E15H	4.13
E15T	4.02
E15L	4.03

Variant	protein stability index
E15A	4.35
E15M	3.48
E15R	4.19
E15W	3.1
E15Q	4.26
E15I	3.27
E15N	4.47
E17S	4.56
E17N	4.29
E17H	3.92
E17F	3.61
E17Q	4.06
E17W	3.4
E17M	3.9
E17D	3.97
E17R	3.91
E17P	4.18
E17G	4.13
E17I	3.1
E17T	4.23
E17K	4.19
E17Y	3.92
E17C	3.76

Variant	protein stability index
E17V	4.62
E17A	3.65
E17L	3.72
Q21F	3.8
Q21L	3.96
Q21W	3.22
Q21E	4.79
Q21R	4.44
Q21T	4.55
Q21M	4.05
Q21H	3.92
Q21I	4.09
Q21D	4
Q21V	4.39
Q21P	4.53
Q21K	4.28
Q21C	4.14
Q21G	3.97
Q21A	3.93
Q21N	4.28
Q21S	4.45
Q21Y	3.67
H24N	4.61

Variant	protein stability index
H24M	4.23
H24K	4.5
H24I	3.72
H24Q	4.31
H24D	4.75
H24R	4.16
H24P	4.03
H24F	4.21
H24W	4.07
H24Y	4.07
H24A	4.44
H24L	3.94
H24T	4.59
H24C	4.05
H24S	4.75
H24G	4.26
H24V	4.47
H24E	4.36
L20K	4.41
L20D	4.92
L20Q	4.7
L20F	4.28
L20N	4.42

Variant	protein stability index
L20A	4.26
L20T	4.58
L20H	4.27
L20Y	4.14
L20C	3.99
L20P	4.72
L20S	4.49
L20M	4.45
L20W	3.7
L20R	4.86
L20G	4.46
L20E	4.81
L20V	3.82
L20I	4.55
S16Y	4.05
S16M	4.09
S16G	4.56
S16V	4.31
S16L	2.83
S16E	4.48
S16H	4.25
S16A	4.16
S16R	3.56

Variant	protein stability index
S16Q	4.53
S16T	4.35
S16P	3.95
S16I	3.77
S16D	4.54
S16K	4.34
S16W	4.12
S16N	4.54
S16C	4.49
S16F	3.85
P14V	4.42
P14W	3.81
P14I	4.22
P14Y	3.72
P14E	4.61
P14L	3.91
P14F	4.32
P14H	3.61
P14Q	4.75
P14R	4.19
P14K	4.43
P14T	4.37
P14G	3.56

Variant	protein stability index
P14S	4.09
P14M	4.04
P14N	4
P23M	4.16
P23N	4.26
P23W	3.92
P23Q	4.06
P23V	3.92
P23R	4.66
P23S	4.78
P23A	4.09
P23K	4.57
P23T	4.57
P23G	5.01
P23Y	3.99
P23C	4.19
P23H	4.45
P23L	4.49
P23F	3.98
P23E	4.8
P23I	4.28
P23D	4.6
